PMC12748787

Target: Trx-CaV1.2 JBM (mouse) (UniProt Q01815)
Test: ITC

Chain of Trx-CaV1.2 JBM (mouse) (Q01815 1647-1777): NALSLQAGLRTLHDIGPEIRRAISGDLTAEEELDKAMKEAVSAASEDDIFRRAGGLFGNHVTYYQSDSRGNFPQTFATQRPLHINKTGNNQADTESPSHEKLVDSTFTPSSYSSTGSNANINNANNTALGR

Substance	fold reduction in binding affinity against the wild type	other results
MBP-JPH2 NT S165F (mouse) (from UniProt Q9ET78 1-440) (domain or fragment)	–	fold decrease in binding affinity against the wild type: > 5 fold
JR-JBM chimera R160E/F165S (from UniProt Q9ET78 1-155; Q9ET78 168-440) (domain or fragment)	–	Kd: 42 µM
JPH2 NT E85K (from UniProt Q9ET78 1-440) (domain or fragment)	3 fold	–
JPH2 NT A399S (A405S in mouse JPH2) (from UniProt Q9ET78 1-440) (domain or fragment)	3 fold	–
